Laboratory results reported in patent publication US20240218041A1, “MOLECULAR DESIGN OF GLUCOSE SENSORS IN GLUCOSE-RESPONSIVE INSULIN ANALOGUES” (THE TRUSTEES OF INDIANA UNIVERSITY, priority 2021, published 2024).

Legend:
[1] = tested on: PEPCK, ChREBP and SREBP gene expression in HepG2 cells; assay: Real-time qPCR assays of metabolic gene regulation in HepG2 cells; assay type: cell-based, human
Method: Cell culture. Human hepatocellular carcinoma cell line HepG2 was cultured in Dulbecco's Modified Eagle Medium (DMEM), supplemented with 10% fetal bovine serum (FBS), 1% penicillin/streptomycin as recommended by the American Type Culture Collection. A protocol employing 24-h serum starvation wherein FBS was applied at 70-75% confluence. After starvation, cells were treated in parallel with a set of insulin analogues in serum-free medium.
Real-time qPCR assays. Following serum starvation, HepG2 cells were treated with medium containing an insulin analogue (50 nM) for 8 h. In studies related to possible glucose responsiveness and lipid metabolism, the cells were treated with analogues for 3 or 4 h in media containing either low or normal glucose concentrations. Readouts were provided by downregulation of PEPCK and G6P and upregulation of ChREBP and SREBP. mRNA (messenger ribonucleic acid) abundances were measured in triplicate by quantitative polymerase chain reaction (qPCR). Samples were prepared as described by the vendor (One-Step rt-PCR reagent kits; Bio-Rad).

[2] = target: insulin receptor (Homo sapiens, UniProt P06213); assay: In-cell pIR immunoblotting (pIR/IR phosphorylation, 96-well plate assay) in HepG2 cells; assay type: cell-based; parameters: endogenous in cells; host or cells: HepG2 (human hepatocellular carcinoma; ATCC); conditions: for glucose-dependent activity in HepG2 cells in culture: as described in Chen, Y.-S., et al. (2021); for monosaccharide dependence of biological activity (pIR/IR phosphorylation): ±50 mM glucose or ±50 mM fructose
Method: After starvation, cells were treated in parallel with a set of insulin analogues in serum-free medium.
In-cell pIR immunoblotting. This cell-based assay probed insulin-dependent IR activation via fluorescent readouts. HepG2 cells were seeded (˜8000 cells/well) into a 96-well black plate with clear bottom and cultured (Fisher). After serum starvation in 100 μl plain Hanks' Balanced Salt Solution (HBSS) for 2 h at 37° C., serial analogue dilutions (100 μl) were applied to each well; cells were then incubated for 20 min at 37° C. After removing medium, 150 μl of 3.7% formaldehyde (Fisher) was added to each well, and plates incubated for 20 min at 37° C. 200 μl of 0.1% Triton-X-100 (Sigma) was then added to permeabilize the cells, followed by their fixation by 100-μl Odyssey Blocking Buffer (LI-COR). A blocking procedure was applied for 1 h at room temperature on an orbital shaker. Fixed cells were then exposed to the primary antibody (10 μL anti-pTyr 4G10 (Sigma) into 20 ml Blocking Buffer) overnight at 4° C. The secondary antibody (anti-mouse-IgG-800-CW antibody (Sigma) in 25 ml Blocking Buffer) was added after a wash. pTyr was detected via 800 nm emission. DRAQ5 (Fisher) was also applied to enable measurement of cell number via 700 nm emission. The fluorescence signals were detected on a LI-COR Infrared Imaging system (Odyssey) under settings as follows: offset 4 mm with setting “Intensity-Auto.”

[3] = tested on: IR autophosphorylation and downstream p-AKT/AKT, p-FOXO1/FOXO1, p-GSK-3/GSK-3; assay: Western blot signaling assays in HepG2 cells; assay type: cell-based, human
Method: Signal propagation was probed via a cytoplasmic kinase cascade and changes in metabolic gene expression in HepG2 cells. […] An overview of IR autophosphorylation (probed by anti-pTyr IR antibodies) and downstream phosphorylation of Ser-Thr protein kinase AKT (protein kinase B; ratio p-AKT/AKT), forkhead transcription factor 1 (p-FOXO1/FOXO1), and glycogen synthase kinase-3 (p-GSK-3/GSK-3) at a single hormone dose (50 nM) was provided by Western blot (WB).
Signaling assays in a mammalian cell line. HepG2 cell line (ATCC) were cultured in DMEM with 10% FBS, 1% penicillin/streptomycin per vendor's instruction. After 70-75% cell confluence, cells were serum-starved for 24 h and then exposed to medium containing an insulin analogue (each at a protein concentration of 50 nM). After lysis in RIPA buffer (containing protease- and phosphatase-inhibitor cocktails; Roche), the total protein concentrations in the lysate was determined by BCA assay (Thermo). […] Briefly, for p-IR/IR blotting, samples were probed by insulin receptor β (4B8) antibody (CST antibodies unless otherwise stated) or an equal mixture of anti-phospho-insulin receptor β (Tyr1150/1151); phospho-insulin receptor (Tyr1158) antibody (Thermo); phospho-insulin receptor (Tyr1334) antibody (Thermo); phospho-insulin receptor β (Tyr1345) monoclonal antiserum; and anti-phospho-insulin receptor (phospho-Tyr972) antibody (Abcam). […]

[4] = in vivo; cited from earlier work

Q: With “FRI: insulin lispro with meta-fluoro-PBA on the α-amino group of GlyA1, 3,4-dihydroxybenzoic acid on LysB28, and HisA8” as the substance, how does the “regulation of PEPCK gene expression” value ([1]; activated by fructose, hypoglycemic conditions, HepG2) read?
A: The value was “regulated downstream expression”.

Q: And the “regulation of ChREBP and SREBP genes” value ([1]; activated by fructose, normoglycemic conditions, HepG2)?
A: Its value is “regulated the genes”.

Q: And the “effect of glucose on metabolic gene regulation” value ([1]; addition of glucose instead of fructose)?
A: Its value is “no effects”.

Q: And the “effect of glucose on IR autophosphorylation activity” value ([2]; addition of 50 mM glucose)?
A: The value was “did not influence its activity”.

Q: What about the “IR autophosphorylation activity relative to KP” value ([2]; in 50 mM fructose) of the same substance?
A: The value was “almost as active as KP”.

Q: And the “baseline IR autophosphorylation activity” value ([2]; in the absence of fructose)?
A: Its value is “low”.

Q: What about the IR autophosphorylation signal ([2]; on addition of 50 mM fructose) of the same substance?
A: Its IR autophosphorylation signal is “robust signal”.

Q: What about the signaling activity ([3]; in the absence of fructose, 50 nM) of the same substance?
A: Its signaling activity is “low”.

Q: And the “fructose dependence of signaling (IR autophosphorylation, p-AKT/AKT, p-FOXO1/FOXO1, p-GSK-3/GSK-3)” value ([3]; single hormone dose 50 nM, HepG2 cells)?
A: The value was “fructose-dependent signaling”.

Q: With “GlyA−1, Cys(GBE1-C)A0, SecA6, SecA11, Lys(DHBA)B28-lispro [GRI-4]” as the substance, how does the “glucose-dependent activity in HepG2 cells in culture” value [2] read?
A: The value was “glucose-dependent activity”.

Q: What about the “monosaccharide dependence of biological activity (pIR/IR phosphorylation)” value ([2]; HepG2 cells) of the same substance?
A: The value was “monosaccharide-dependent biological activity”.

Q: Which glucose-dependent gene regulation ([1]; PEPCK, ChREBP and SREBP, HepG2 cells in culture) does the source give for “GlyA0, D-Cys(GBE1-C)A1, SecA6, SecA11, Lys(DHBA)B28-lispro [GRI-3]” here?
A: Its glucose-dependent gene regulation is “glucose-dependent gene regulation”.

Q: And the “glucose-dependent activity in HepG2 cells in culture” value [2]?
A: Its value is “glucose-dependent activity”.

Q: What about the “monosaccharide dependence of biological activity (pIR/IR phosphorylation)” value ([2]; HepG2 cells) of the same substance?
A: The value was “monosaccharide-dependent biological activity”.

Q: And the “glucose dependence of pIR/IR phosphorylation” value ([2]; ±50 mM glucose, HepG2 cells)?
A: Its value is “glucose-dependent IR phosphorylation”.

Q: For insulin detemir, which “per molecule activity relative to human insulin” value [4] is on record?
A: The value was “fourfold reduced”.
